Reference: the supplement of paper PMC9170038

Columns and labels:
MS2 coat protein [1] = test: apparent KD of MS2 coat protein, switch ON state; designed switch direction (-1 OFF switch, 1 ON switch): -1; higher = weaker reporter binding; conditions: FMN input: 0 or 200 uM; Eterna round: R93 (includes R88 designs)
In short: (§1)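 Binding of SNAP-549-labelled MS2 coat protein was measured on designed RNA switches transcribed on-chip from Illumina sequencing clusters. The protein rose in twofold steps from 0.7 or 1.5 nM to 3 µM, with 0.8–1.5 h per step early on and 10–20 min per step later, in 100 mM Tris-HCl pH 7.5, 80 mM KCl, 4 mM MgCl2, without or with constant ligand. Each design's apparent KD is the median of fits to its normalised cluster binding curves.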

MS2 coat protein [2] = test: apparent KD of MS2 coat protein, switch OFF state (with FMN for OFF switches, without FMN for ON switches); designed switch direction (-1 OFF switch, 1 ON switch): -1; higher = weaker reporter binding; conditions: FMN input: 0 or 200 uM; Eterna round: R93 (includes R88 designs)
In short: as §1

MS2 coat protein [3] = test: apparent KD of MS2 coat protein; designed switch direction (-1 OFF switch, 1 ON switch): 1; higher = weaker reporter binding
In short: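 Designed RNA switches with common flanks were made on Illumina chips by stalled E. coli RNA polymerase. Titration with SNAP-549-labelled MS2 coat protein doubled from 0.7 or 1.5 nM up to 3 µM. Apparent KD is each design's median over clusters after curve-fitting normalised fluorescence.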

[4] = input ligand: microRNA oligo, concentration not stated
[5] = Eterna round: R95, input ligand: microRNA oligo, concentration not stated

| Sequence | apparent KD of MS2 coat protein (MS2 coat protein [3]; [4]) [nM] | apparent KD of MS2 coat protein (MS2 coat protein [3]; input ligand: FMN 200 uM) [nM] | apparent KD of MS2 coat protein (MS2 coat protein [3]; input ligand: none) [nM] | further results |
| --- | --- | --- | --- | --- |
| AAAAAACAUGAGGAUCACCCAUGUAAGGAUAUCGGAAAAGGAAAAAAAAAAAAGAAGACGAGAAGGUACACCAA | – | – | – | apparent KD of MS2 coat protein (MS2 coat protein [1]): 25.9 nM; apparent KD of MS2 coat protein (MS2 coat protein [2]): 31.5 nM |
| AAAAAACAUGAGGAUCACCCAUGUAAGGAUAUCUAAAAUAAAAGAAAAAUAAAGAAAAGGAGAAGGUACAAGGA [JL wbt mod 25] | – | – | – | apparent KD of MS2 coat protein (MS2 coat protein [1]): 13.8 nM; apparent KD of MS2 coat protein (MS2 coat protein [2]): 32.6 nM |
| AAAAAACAUGAGGAUCACCCAUGUAAGGAUAUGCUAAAAAAAAAAAAAAAAAAAAAAUGCAGAAGGUACAAAAA [water's exclusion 1 again] | – | – | – | apparent KD of MS2 coat protein (MS2 coat protein [1]): 40.4 nM; apparent KD of MS2 coat protein (MS2 coat protein [2]): 40.2 nM |
| AAAAAACAUGAGGAUCACCCAUGUAAGGAUAUGCUCGUGCGAAAAAGCACAAAAAAGAGCAGAAGGUACAAAAA [66%, Wbt, 40] | – | – | – | apparent KD of MS2 coat protein (MS2 coat protein [1]): 18.8 nM; apparent KD of MS2 coat protein (MS2 coat protein [2]): 34.4 nM |
| AAAAAACAUGAGGAUCACCCAUGUAAGGAUAUGCUGAAAAAACACUGGAAACAGUGCAGCAGAAGGUACAAAAA [66%, Wbt, 35] | – | – | – | apparent KD of MS2 coat protein (MS2 coat protein [1]): 21.5 nM; apparent KD of MS2 coat protein (MS2 coat protein [2]): 27.2 nM |
| AAAAAACAUGAGGAUCACCCAUGUCAGGAUAUCGAAAAGAAAAGAAAAGAAAGAAGAACGAGAAGGGACAAGAA [Menkaura] | – | – | – | apparent KD of MS2 coat protein (MS2 coat protein [1]): 29.3 nM; apparent KD of MS2 coat protein (MS2 coat protein [2]): 24.5 nM |
| ACAGCUGAAGGAUAUACUUGGAAAAAAAAAAAAAAAAAAAAACAUGAGGAUCACCCAUGUAGAAGGUCAGCUGA [Brourd - Exclusion 2 - Sub 2] | – | – | – | apparent KD of MS2 coat protein (MS2 coat protein [1]): 50.3 nM |
| UUAAUUAAUUAAUUAUACAUGAGGAUCACCCAUGUAAGUGAUCAGGAUAUCAGCUCGAAUAGAGCUGAGAAGGGAUACAUGAAU [SSNG3/12-A1] (Eterna round: R96, puzzle: Same State NG 3) | 101 | – | – | – |
| UUAAUUAUGUAAGGAUAUACAUGAGGAUUUCUCGUAGAAGGUACAUUACAUGAGGAUCACCCAUGUGGGUGUCCGUAGACGCCA [JL SSNG1 1.06] (Eterna round: R96, puzzle: Same State NG 1) | 475 | – | – | – |
| UUAAUUUACUGAGGAUAUCGUGUCGUCUGAUUUGACAUGAGGAUCACCCAUGUGUGAAGUGGUAUCGAGAAGGCAGUUUUCUUA [JR_SSNG2_Sub027] (Eterna round: R96, puzzle: Same State NG 2) | 42.6 | 24.2 | 75.5 | – |
| UUAGAAUUGCAAGGAUAUCUAAUUUAGAUAGUAAGAGAAGGUGCUUGAUAGUUACAUGAGGAUCACCCAUGUUUUUGGGUUUAU [JR_SSNG1_Sub058] (Eterna round: R96, puzzle: Same State NG 1) | 416 | – | – | – |
| UUAGCGACGGAAGGAUAUUGGACGCUAACAUGAGGAUCACCCAUGUAGAGGUCCUACCAACAGCGCAAGAAGGUCCGAUCAGCA [Eternabot solution 13] (Eterna round: R96, puzzle: Same State NG 2) | 8.94 | 22.7 | 13.3 | – |
| UUAUACUCGAGAGGAUAUGCAGAGGAUCACCCUGCAGAAGGCUCGUUAGAGAGGAUAUGCAGAGGAUCACCCUGCAGAAGGCUC [pwkr ssNG DX.24] (Eterna round: R96, puzzle: Same State NG 1) | 16.1 | 45.7 | 37.4 | – |
| UUAUCUCAGACAUGAGGAUCACCCAUGUGGUUUUGACUUAGACAGGAUAUAGUAGUAUCGAAAUACUAGAAGGGUCAUUUUAUU [JR_SSNG3_Sub022] (Eterna round: R96, puzzle: Same State NG 3) | 99.5 | 91.3 | 125 | – |
| UUAUCUCUUACAUGAGGAUCACCCAUGUUUUUAUGUCUUAGACAGGAUAUAGUAGUCUCGUAUUACUAGAAGGGUCUUUUUAUU [JR_SSNG3_Sub020] (Eterna round: R96, puzzle: Same State NG 3) | 22.4 | 18.7 | 26.4 | – |
| UUAUUAUUUACAUGAGGAUCACCCAUGUUUUUAUGUCAGAGACAGGAUAUAGAAGUCUCGUUUUACUAGAAGGGUCUUUUUAUU [JR_SSNG3_Sub016] (Eterna round: R96, puzzle: Same State NG 3) | 17.1 | 22 | 22 | – |

| Sequence | apparent KD of MS2 coat protein (MS2 coat protein [3]; [4]) [nM] | apparent KD of MS2 coat protein (MS2 coat protein [3]; input ligand: FMN 200 uM) [nM] | apparent KD of MS2 coat protein (MS2 coat protein [3]; input ligand: none) [nM] | further results |
| --- | --- | --- | --- | --- |
| UUCUCAUUUACAUGAGGAUCACCCAUGUUUUUUUGUCAGAGAUAGGAUAUAGUUCUCUCGUUUUUCUAGAAGGAUCUUUUUAUU [JR_SSNG3_Sub087] (Eterna round: R96, puzzle: Same State NG 3) | 53.2 | 79.7 | 71.7 | – |
| UUCUCAUUUACAUGAGGAUCACCCAUGUUUUUUUGUCGGAAAUAGGAUAUAGGUCUCUCGUUUUACUAGAAGGAUUUCCUUAUU [JR_SSNG3_Sub089] (Eterna round: R96, puzzle: Same State NG 3) | 70.7 | 70.4 | 58.9 | – |
| UUCUCCUUUUUUUACAUGAGGAUCACCCAUGUUUUUCUUACGUAGGAUAUCGUUGUUUUUUUUUACGAGAAGGACGUAGUAAGU [JR_SSND3_Sub060] (Eterna round: R96, puzzle: Same State NG 3) | 25.8 | 31.5 | 36.2 | – |
| UUCUGAUAGCGAGGAUAUCGCGAGGAUCACCCGUGAGAAGGCGCAGAGCCGAGGAUCACCCGGCUGAUCCUGAGAAGGAGGUCA (Eterna round: R96, puzzle: Same State NG 1) | 333 | 136 | 530 | – |
| UUGAAGAAUUAAGGAUAUCGAGUCGUCAGAUUUUACAUGAGGAUCACCCAUGUGGGUUGCGGUAUCGAGAAGGUAAAUUACAAG [JL JR Sub099 mod 6] (Eterna round: R96, puzzle: Same State NG 2) | 34.1 | 24.4 | 43.3 | – |
| UUGAAGAAUUAAGGAUAUUGAAUACAUAUGUUUAACAUGAGGAUCACCCAUGUGGGUUGCGGUAUCGAGAAGGUAAAUUACUAA [Mat - Same State NG 2 - JL mod - D1] (Eterna round: R96, puzzle: Same State NG 2) | 80.5 | 140 | 112 | – |
| UUGAAGAAUUAAGGAUAUUGAGUACAUAUGUUAAACAUGAGGAUCACCCAUGUGGGUUGCGGUAUCGAGAAGGUAAAUUACUAG [Mat - same State NG 2 - JL mod - D68] (Eterna round: R96, puzzle: Same State NG 2) | 46.8 | 90.9 | 70.8 | – |
| UUGAAUAAUUAAGGAUAUCGAGUCAAGAUGUUAAACAUGAGGAUCACCCAUGUGGGUUGCGGUAUCGAGAAGGUAAAUAAGAAG [Mat - Same State NG 2 - JL mod - D55] (Eterna round: R96, puzzle: Same State NG 2) | 19.6 | 26.6 | 42.5 | – |
| UUGAUUAGAAGUUAACAUGAGGAUCACCCAUGUAUUGGAUCAGAGGAUAUGCAUGUUUGAUAGUAGCAGAAGGCUGAUGGUGGA [JR_SSNG3_Sub026] (Eterna round: R96, puzzle: Same State NG 3) | 39.8 | – | – | – |
| UUGCGCUGUCGAGAGGAUAUGCGGUGUUGGACAUGAGGAUCACCCAUGUUUGCGAUAGCUUUACGGUAGAAGGCUCUUCAGCUGC [salish99_ss2_r3_099] (puzzle: Same State 2) | – | – | – | apparent KD of MS2 coat protein (MS2 coat protein [3]; [5]): 45.8 nM |
| UUGCGGGCUUGAGGAUAUUGAGUACAUAUGUUUAACAUGAGGAUCACCCAUGUGGGUUGCGGUAUCGAGAAGGUGGCUUCCUGC [salish99_SSNG2_r04_813] (Eterna round: R96, puzzle: Same State NG 2) | 82.7 | 81.9 | 74.8 | – |
| UUGCUCGUGUGAGGAUAUGCCGCCGUUUCGGCUGCAGAAGGUACUCUUAUACAUGAGGAUCACCCAUGUCUCUGUUGUUUCGUG [salish99_SSNG1_r04_936] (Eterna round: R96, puzzle: Same State NG 1) | 65.3 | 97.9 | 98.2 | – |
| UUGCUCGUGUGAGGAUAUGCCGCCGUUUCGGCUGCAGAAGGUACUCUUGUACAUGAGGAUCACCCAUGUCUCUGUUGUUUCGUG [salish99_SSNG1_r04_938] (Eterna round: R96, puzzle: Same State NG 1) | 43.6 | – | – | – |
| UUUAGUUGCGGGCAGGAUAUGUAUUAAAAUACAUGAGGAUCACCCAUGUGAGAUCGAAAAGAUCUACAGAAGGGCCAAUCGCGAC [Laonerce - 24] (puzzle: Same State 2) | – | – | – | apparent KD of MS2 coat protein (MS2 coat protein [3]; Eterna round: R95, input ligand: FMN 200 uM): 14 nM; apparent KD of MS2 coat protein (MS2 coat protein [3]; [5]): 58.3 nM; apparent KD of MS2 coat protein (MS2 coat protein [3]; Eterna round: R95, input ligand: none): 85.8 nM |
| UUUGGGUGGCUGGAGGAUAUUCUAGUGGUUACAUGAGGAUCACCCAUGUGUCGCGCGGUUCGCGAGGAGAAGGCUGGCGGCCGUU (puzzle: Same State 2) | – | – | – | apparent KD of MS2 coat protein (MS2 coat protein [3]; [5]): 93.3 nM |
| UUUUCGAACCGAGGAUAUCCUUAUAAGAAACAUGAGGAUCACCCAUGUAAAGGGAAUUAUUUGAAGGAGAAGGCGGAUUUUGUU [JR_SSNG2_Sub053] (Eterna round: R96, puzzle: Same State NG 2) | 33.5 | – | – | – |
